{"source": "patent US20080280832A1", "about": "(LABORATOIRES SERONO, published 2008)", "binders": {"B1": {"name": "Clone 15C- α D3N/β GM1 (ligand)", "chain 1": "not shown", "chain 2": "NSCELTNITIAIEKEECRFCISINTTWCAGYCYTRDLVYKDPARPKIQKTCTFKNLTYETVRVPGCAHHADSLYTYPVATQCHCGKCDSDSTDCTVRGLGPSYCSFGEMKE"}}, "target": "T1, human FSH receptor (human, UniProt P23945 18-695)", "T1 sequence (looked up)": "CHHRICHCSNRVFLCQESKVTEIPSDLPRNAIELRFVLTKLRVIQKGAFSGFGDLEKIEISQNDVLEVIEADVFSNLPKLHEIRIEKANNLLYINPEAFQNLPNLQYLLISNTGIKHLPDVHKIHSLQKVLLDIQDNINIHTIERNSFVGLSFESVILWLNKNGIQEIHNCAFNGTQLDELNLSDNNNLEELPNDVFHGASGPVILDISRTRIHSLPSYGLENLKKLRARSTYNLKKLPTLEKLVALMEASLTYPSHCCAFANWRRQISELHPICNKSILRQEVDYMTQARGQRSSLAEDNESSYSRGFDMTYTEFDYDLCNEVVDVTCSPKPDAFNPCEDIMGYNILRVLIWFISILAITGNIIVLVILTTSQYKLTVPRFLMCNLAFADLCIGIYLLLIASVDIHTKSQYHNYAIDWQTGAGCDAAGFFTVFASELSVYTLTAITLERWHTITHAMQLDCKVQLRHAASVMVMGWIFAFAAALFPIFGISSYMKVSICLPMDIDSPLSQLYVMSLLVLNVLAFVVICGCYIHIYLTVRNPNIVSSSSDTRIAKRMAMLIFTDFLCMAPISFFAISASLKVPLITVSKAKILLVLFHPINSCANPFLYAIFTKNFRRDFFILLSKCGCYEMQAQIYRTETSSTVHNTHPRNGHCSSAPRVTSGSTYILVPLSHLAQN", "assay": "cell-based or functional assay", "data": [{"binder": "B1", "values": [{"measurement": "EC50 M (cAMP production in CHO-FSHR cells)", "value": 414, "unit": "pM"}]}]}
